The values below come from PMC10593751.

The target in the assay is human IgG1 (human). The assay can be described thus: ELISA; immobilized human IgG (hIgG1 or hIgG2) used to pull down CD64; n = 3. (In an ELISA, binding on a coated surface is turned into a signal by an enzyme label.)

pKd: −log10 of the molar value.

With “wild-type CD64 (Fc-gamma receptor 1) (from UniProt P12314 16-374)”, the negative logarithm of the Kd (pKd) – broadly, −log10 of the Kd, conventionally taken in molar units – was 10.23.
Take “CD64 engineered at the N-terminus with the CKAAKNK (CK) tissue homing peptide (receptor)”: the pKd was 10.27.
